Literature values, collected in paper PMC5983787.
Like-named read-outs stand apart in the source and are kept apart here.

How the values were obtained:
[1] = target: Cx43 (UniProt P17302)
[2] = target: Cx43 (UniProt P17302); remark: listed apart in the source

UniProt P17302, sequence (P17302 2-382): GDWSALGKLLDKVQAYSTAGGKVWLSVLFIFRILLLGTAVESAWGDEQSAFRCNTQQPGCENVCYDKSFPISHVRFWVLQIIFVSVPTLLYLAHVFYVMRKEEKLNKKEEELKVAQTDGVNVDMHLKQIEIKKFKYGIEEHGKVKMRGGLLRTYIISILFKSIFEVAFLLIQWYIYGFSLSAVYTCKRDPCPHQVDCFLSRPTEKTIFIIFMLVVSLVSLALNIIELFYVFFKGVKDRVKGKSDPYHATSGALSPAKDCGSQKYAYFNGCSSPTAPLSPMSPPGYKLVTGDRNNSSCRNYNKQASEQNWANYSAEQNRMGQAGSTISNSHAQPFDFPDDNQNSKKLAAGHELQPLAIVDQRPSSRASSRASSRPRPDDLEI

- Kd [1]: 585 µM
- Kd [2]: 1060 µM
Substance: Nedd4 (from UniProt P46934)
